Laboratory results: patent publication US20110294748A1 (Janssen / Centocor, published 2011)
Values belong to the binder of their own block, whether it stands above or below them.

Biological target: T1, soluble IGF1R (sIGF1R), extracellular domain of human insulin-like growth factor 1 receptor, carboxy-terminal … (human, UniProt P08069 31-932)
T1 construct: Bought from R&D Systems; GenBank NP-000866 is printed for the whole receptor; also called IFG1R
Experiment: ELISA, culture supernatant on 2 µg/ml coated sIGF1R, Attophos detection
Method: The binding of purified peptide-AP fusion proteins to sIGF1R was assessed using ELISA against immobilized sIGF1R. Briefly, bacteria transformed with each peptide-AP fusion expression vector were grown overnight and the following day the cultures were clarified by centrifugation at 4,500 rpm, 4° C. The supernatants were collected and 75 μl of each supernatant was assayed for binding to 2 μg/ml sIGF1R immobilized on ELISA plates. The bound peptides were detected using the Attophos Substrate (Roche, Indianapolis, Ind.) following the manufacturer's recommendation and read using a Molecular Devices M5 plate reader.

binding result: binds
B2: peptide-Alkaline phosphatase-His6 fusion protein of clone 8 (other)
chain: PVCPSFCYDQYVCPTTPEMPVLENRAAQGDITTPGGARRLTGDQTAALRDSLSDKPAKNIILLIGDGMGDSEITAARNYAEGAGGFFKGIDALPLTGQYTHYALNKKTGKPDYVTDSAASATAWSTGVKTYNGALGVDIHEKDHPTILEMAKAAGLATGNVSTAELQGATPAALVAHVTSRKCYGPSATSEKCPGNALEKGGKGSITEQLLNARADVTLGGGAKTFAETATAGEWQGKTLREQAQTRGYQLVSDAASLNSVTEANQQKPLLGLFADGNMPVRWLGPKATYHGNIDKPAVTCTPNPQRNDSVPTLAQMTDKAIELLSKNEKGFFLQVEGASIDKQNHAANPCGQIGETVDLDEAVQRALEFAKKEGNTLVIVTADHAHASQIVAPDTKAPGLTQALNTKDGAVMVMSYGNSEEDSQEHTGSQLRIAAYGPHAANVVGLTDQTDLFYTMKAALGLKVPGGSGGGSGGGSGGGSGTPEMPVLENRAAQGDITTPGGARRLTGDQTAALRDSLSDKPAKNIILLIGDGMGDSEITAARNYAEGAGGFFKGIDALPLTGQYTHYALNKKTGKPDYVTDSAASATAWSTGVKTYNGALGVDIHEKDHPTILEMAKAAGLATGNVSTAELQGATPAALVAHVTSRKCYGPSATSEKCPGNALEKGGKGSITEQLLNARADVTLGGGAKTFAETATAGEWQGKTLREQAQTRGYQLVSDAASLNSVTEANQQKPLLGLFADGNMPVRWLGPKATYHGNIDKPAVTCTPNPQRNDSVPTLAQMTDKAIELLSKNEKGFFLQVEGASIDKQNHAANPCGQIGETVDLDEAVQRALEFAKKEGNTLVIVTADHAHASQIVAPDTKAPGLTQALNTKDGAVMVMSYGNSEEDSQEHTGSQLRIAAYGPHAANVVGLTDQTDLFYTMKAALGLKVPGNSHHHHHH
notes: Tested as bacterial culture supernatant; also called peptide-AP fusion clone 8

binding result: binds
B4: peptide-Alkaline phosphatase-His6 fusion protein of clone 12 (other)
chain: SNCPPLDMRLTELCVMTPEMPVLENRAAQGDITTPGGARRLTGDQTAALRDSLSDKPAKNIILLIGDGMGDSEITAARNYAEGAGGFFKGIDALPLTGQYTHYALNKKTGKPDYVTDSAASATAWSTGVKTYNGALGVDIHEKDHPTILEMAKAAGLATGNVSTAELQGATPAALVAHVTSRKCYGPSATSEKCPGNALEKGGKGSITEQLLNARADVTLGGGAKTFAETATAGEWQGKTLREQAQTRGYQLVSDAASLNSVTEANQQKPLLGLFADGNMPVRWLGPKATYHGNIDKPAVTCTPNPQRNDSVPTLAQMTDKAIELLSKNEKGFFLQVEGASIDKQNHAANPCGQIGETVDLDEAVQRALEFAKKEGNTLVIVTADHAHASQIVAPDTKAPGLTQALNTKDGAVMVMSYGNSEEDSQEHTGSQLRIAAYGPHAANVVGLTDQTDLFYTMKAALGLKVPGGSGGGSGGGSGGGSGTPEMPVLENRAAQGDITTPGGARRLTGDQTAALRDSLSDKPAKNIILLIGDGMGDSEITAARNYAEGAGGFFKGIDALPLTGQYTHYALNKKTGKPDYVTDSAASATAWSTGVKTYNGALGVDIHEKDHPTILEMAKAAGLATGNVSTAELQGATPAALVAHVTSRKCYGPSATSEKCPGNALEKGGKGSITEQLLNARADVTLGGGAKTFAETATAGEWQGKTLREQAQTRGYQLVSDAASLNSVTEANQQKPLLGLFADGNMPVRWLGPKATYHGNIDKPAVTCTPNPQRNDSVPTLAQMTDKAIELLSKNEKGFFLQVEGASIDKQNHAANPCGQIGETVDLDEAVQRALEFAKKEGNTLVIVTADHAHASQIVAPDTKAPGLTQALNTKDGAVMVMSYGNSEEDSQEHTGSQLRIAAYGPHAANVVGLTDQTDLFYTMKAALGLKVPGNSHHHHHH
notes: Tested as bacterial culture supernatant; also called peptide-AP fusion clone 12

binding result: binds
B6: peptide-Alkaline phosphatase-His6 fusion protein of clone 9 (other)
chain: FTCAVYSLSELDCRDTPEMPVLENRAAQGDITTPGGARRLTGDQTAALRDSLSDKPAKNIILLIGDGMGDSEITAARNYAEGAGGFFKGIDALPLTGQYTHYALNKKTGKPDYVTDSAASATAWSTGVKTYNGALGVDIHEKDHPTILEMAKAAGLATGNVSTAELQGATPAALVAHVTSRKCYGPSATSEKCPGNALEKGGKGSITEQLLNARADVTLGGGAKTFAETATAGEWQGKTLREQAQTRGYQLVSDAASLNSVTEANQQKPLLGLFADGNMPVRWLGPKATYHGNIDKPAVTCTPNPQRNDSVPTLAQMTDKAIELLSKNEKGFFLQVEGASIDKQNHAANPCGQIGETVDLDEAVQRALEFAKKEGNTLVIVTADHAHASQIVAPDTKAPGLTQALNTKDGAVMVMSYGNSEEDSQEHTGSQLRIAAYGPHAANVVGLTDQTDLFYTMKAALGLKVPGGSGGGSGGGSGGGSGTPEMPVLENRAAQGDITTPGGARRLTGDQTAALRDSLSDKPAKNIILLIGDGMGDSEITAARNYAEGAGGFFKGIDALPLTGQYTHYALNKKTGKPDYVTDSAASATAWSTGVKTYNGALGVDIHEKDHPTILEMAKAAGLATGNVSTAELQGATPAALVAHVTSRKCYGPSATSEKCPGNALEKGGKGSITEQLLNARADVTLGGGAKTFAETATAGEWQGKTLREQAQTRGYQLVSDAASLNSVTEANQQKPLLGLFADGNMPVRWLGPKATYHGNIDKPAVTCTPNPQRNDSVPTLAQMTDKAIELLSKNEKGFFLQVEGASIDKQNHAANPCGQIGETVDLDEAVQRALEFAKKEGNTLVIVTADHAHASQIVAPDTKAPGLTQALNTKDGAVMVMSYGNSEEDSQEHTGSQLRIAAYGPHAANVVGLTDQTDLFYTMKAALGLKVPGNSHHHHHH
notes: Tested as bacterial culture supernatant; also called peptide-AP fusion clone 9

More lines, now with the values behind:

B1: peptide-Alkaline phosphatase-His6 fusion protein of clone 14 (other)
chain: VECDTPSITFSPGLEALFWNTCSPTPEMPVLENRAAQGDITTPGGARRLTGDQTAALRDSLSDKPAKNIILLIGDGMGDSEITAARNYAEGAGGFFKGIDALPLTGQYTHYALNKKTGKPDYVTDSAASATAWSTGVKTYNGALGVDIHEKDHPTILEMAKAAGLATGNVSTAELQGATPAALVAHVTSRKCYGPSATSEKCPGNALEKGGKGSITEQLLNARADVTLGGGAKTFAETATAGEWQGKTLREQAQTRGYQLVSDAASLNSVTEANQQKPLLGLFADGNMPVRWLGPKATYHGNIDKPAVTCTPNPQRNDSVPTLAQMTDKAIELLSKNEKGFFLQVEGASIDKQNHAANPCGQIGETVDLDEAVQRALEFAKKEGNTLVIVTADHAHASQIVAPDTKAPGLTQALNTKDGAVMVMSYGNSEEDSQEHTGSQLRIAAYGPHAANVVGLTDQTDLFYTMKAALGLKVPGGSGGGSGGGSGGGSGTPEMPVLENRAAQGDITTPGGARRLTGDQTAALRDSLSDKPAKNIILLIGDGMGDSEITAARNYAEGAGGFFKGIDALPLTGQYTHYALNKKTGKPDYVTDSAASATAWSTGVKTYNGALGVDIHEKDHPTILEMAKAAGLATGNVSTAELQGATPAALVAHVTSRKCYGPSATSEKCPGNALEKGGKGSITEQLLNARADVTLGGGAKTFAETATAGEWQGKTLREQAQTRGYQLVSDAASLNSVTEANQQKPLLGLFADGNMPVRWLGPKATYHGNIDKPAVTCTPNPQRNDSVPTLAQMTDKAIELLSKNEKGFFLQVEGASIDKQNHAANPCGQIGETVDLDEAVQRALEFAKKEGNTLVIVTADHAHASQIVAPDTKAPGLTQALNTKDGAVMVMSYGNSEEDSQEHTGSQLRIAAYGPHAANVVGLTDQTDLFYTMKAALGLKVPGNSHHHHHH
notes: Tested as bacterial culture supernatant; also called peptide-AP fusion clone 14
binding result: binds

B3: peptide-Alkaline phosphatase-His6 fusion protein of clone 11 (other)
chain: HTCFYPTLMPPELCFDTPEMPVLENRAAQGDITTPGGARRLTGDQTAALRDSLSDKPAKNIILLIGDGMGDSEITAARNYAEGAGGFFKGIDALPLTGQYTHYALNKKTGKPDYVTDSAASATAWSTGVKTYNGALGVDIHEKDHPTILEMAKAAGLATGNVSTAELQGATPAALVAHVTSRKCYGPSATSEKCPGNALEKGGKGSITEQLLNARADVTLGGGAKTFAETATAGEWQGKTLREQAQTRGYQLVSDAASLNSVTEANQQKPLLGLFADGNMPVRWLGPKATYHGNIDKPAVTCTPNPQRNDSVPTLAQMTDKAIELLSKNEKGFFLQVEGASIDKQNHAANPCGQIGETVDLDEAVQRALEFAKKEGNTLVIVTADHAHASQIVAPDTKAPGLTQALNTKDGAVMVMSYGNSEEDSQEHTGSQLRIAAYGPHAANVVGLTDQTDLFYTMKAALGLKVPGGSGGGSGGGSGGGSGTPEMPVLENRAAQGDITTPGGARRLTGDQTAALRDSLSDKPAKNIILLIGDGMGDSEITAARNYAEGAGGFFKGIDALPLTGQYTHYALNKKTGKPDYVTDSAASATAWSTGVKTYNGALGVDIHEKDHPTILEMAKAAGLATGNVSTAELQGATPAALVAHVTSRKCYGPSATSEKCPGNALEKGGKGSITEQLLNARADVTLGGGAKTFAETATAGEWQGKTLREQAQTRGYQLVSDAASLNSVTEANQQKPLLGLFADGNMPVRWLGPKATYHGNIDKPAVTCTPNPQRNDSVPTLAQMTDKAIELLSKNEKGFFLQVEGASIDKQNHAANPCGQIGETVDLDEAVQRALEFAKKEGNTLVIVTADHAHASQIVAPDTKAPGLTQALNTKDGAVMVMSYGNSEEDSQEHTGSQLRIAAYGPHAANVVGLTDQTDLFYTMKAALGLKVPGNSHHHHHH
notes: Tested as bacterial culture supernatant; also called peptide-AP fusion clone 11
binding result: binds

B5: peptide-Alkaline phosphatase-His6 fusion protein of clone 6 (other)
chain: AECEWPWLTLELCQSTPEMPVLENRAAQGDITTPGGARRLTGDQTAALRDSLSDKPAKNIILLIGDGMGDSEITAARNYAEGAGGFFKGIDALPLTGQYTHYALNKKTGKPDYVTDSAASATAWSTGVKTYNGALGVDIHEKDHPTILEMAKAAGLATGNVSTAELQGATPAALVAHVTSRKCYGPSATSEKCPGNALEKGGKGSITEQLLNARADVTLGGGAKTFAETATAGEWQGKTLREQAQTRGYQLVSDAASLNSVTEANQQKPLLGLFADGNMPVRWLGPKATYHGNIDKPAVTCTPNPQRNDSVPTLAQMTDKAIELLSKNEKGFFLQVEGASIDKQNHAANPCGQIGETVDLDEAVQRALEFAKKEGNTLVIVTADHAHASQIVAPDTKAPGLTQALNTKDGAVMVMSYGNSEEDSQEHTGSQLRIAAYGPHAANVVGLTDQTDLFYTMKAALGLKVPGGSGGGSGGGSGGGSGTPEMPVLENRAAQGDITTPGGARRLTGDQTAALRDSLSDKPAKNIILLIGDGMGDSEITAARNYAEGAGGFFKGIDALPLTGQYTHYALNKKTGKPDYVTDSAASATAWSTGVKTYNGALGVDIHEKDHPTILEMAKAAGLATGNVSTAELQGATPAALVAHVTSRKCYGPSATSEKCPGNALEKGGKGSITEQLLNARADVTLGGGAKTFAETATAGEWQGKTLREQAQTRGYQLVSDAASLNSVTEANQQKPLLGLFADGNMPVRWLGPKATYHGNIDKPAVTCTPNPQRNDSVPTLAQMTDKAIELLSKNEKGFFLQVEGASIDKQNHAANPCGQIGETVDLDEAVQRALEFAKKEGNTLVIVTADHAHASQIVAPDTKAPGLTQALNTKDGAVMVMSYGNSEEDSQEHTGSQLRIAAYGPHAANVVGLTDQTDLFYTMKAALGLKVPGNSHHHHHH
notes: Tested as bacterial culture supernatant; also called peptide-AP fusion clone 6
binding result: binds
